Laboratory results from patent US20210087239A1 (ACADEMIA SINICA, published 2021).
Substitutions are numbered along the chain they refer to. In names and notes the source's numbering stands.

T1: β-catenin (human, UniProt P35222 2-781)
T1 construct: Endogenous protein co-immunoprecipitated from cell lysates or nuclear fractions; also called nuclear β-catenin
T1 sequence (looked up): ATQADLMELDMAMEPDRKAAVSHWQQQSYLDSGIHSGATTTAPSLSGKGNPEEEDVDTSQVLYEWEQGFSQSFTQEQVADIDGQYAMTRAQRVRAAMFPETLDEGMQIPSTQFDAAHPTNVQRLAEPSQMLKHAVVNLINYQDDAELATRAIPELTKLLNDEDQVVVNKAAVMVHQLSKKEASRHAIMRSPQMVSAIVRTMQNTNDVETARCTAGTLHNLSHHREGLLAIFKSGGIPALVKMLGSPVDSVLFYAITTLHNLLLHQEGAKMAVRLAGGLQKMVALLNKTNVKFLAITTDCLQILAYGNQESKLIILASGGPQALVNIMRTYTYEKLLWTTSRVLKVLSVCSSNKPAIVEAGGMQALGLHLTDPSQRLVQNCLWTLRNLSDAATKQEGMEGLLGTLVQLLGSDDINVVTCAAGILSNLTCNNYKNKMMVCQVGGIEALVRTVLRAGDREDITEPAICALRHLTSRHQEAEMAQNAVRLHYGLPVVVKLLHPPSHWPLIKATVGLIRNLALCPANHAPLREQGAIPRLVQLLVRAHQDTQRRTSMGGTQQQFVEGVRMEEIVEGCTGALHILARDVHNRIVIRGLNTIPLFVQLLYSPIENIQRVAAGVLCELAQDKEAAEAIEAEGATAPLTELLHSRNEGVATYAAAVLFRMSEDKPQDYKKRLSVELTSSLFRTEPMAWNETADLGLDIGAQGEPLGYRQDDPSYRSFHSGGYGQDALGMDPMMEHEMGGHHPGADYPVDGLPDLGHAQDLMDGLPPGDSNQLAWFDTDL

T2: HA-tagged PSPC1 (wild type) (human, UniProt Q8WXF1 1-523)
T2 construct: Full-length PSPC1 cDNA cloned into pcDNA3.0-HA and expressed in 293T or SK-hep1 cells; also called HA-PSPC1; wild-type PSPC1; not shown: HA tag from the pcDNA3.0-HA plasmid
T2 sequence: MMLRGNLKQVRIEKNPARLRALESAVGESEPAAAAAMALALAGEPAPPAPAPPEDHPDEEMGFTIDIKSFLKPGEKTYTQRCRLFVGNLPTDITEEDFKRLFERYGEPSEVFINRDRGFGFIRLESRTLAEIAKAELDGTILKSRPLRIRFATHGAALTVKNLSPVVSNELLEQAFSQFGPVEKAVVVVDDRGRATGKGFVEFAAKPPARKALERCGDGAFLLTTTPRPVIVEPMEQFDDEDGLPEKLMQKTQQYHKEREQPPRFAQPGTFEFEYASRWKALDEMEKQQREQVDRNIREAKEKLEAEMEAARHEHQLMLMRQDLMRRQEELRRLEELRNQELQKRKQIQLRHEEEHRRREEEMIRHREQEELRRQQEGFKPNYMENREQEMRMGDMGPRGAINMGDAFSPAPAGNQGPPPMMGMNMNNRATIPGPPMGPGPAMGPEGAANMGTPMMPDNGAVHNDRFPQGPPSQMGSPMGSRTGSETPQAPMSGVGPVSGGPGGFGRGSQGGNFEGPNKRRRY

B1: Paraspeckle component 1 (PSPC1), human (other)
chain: T2 sequence
notes: Endogenous PSPC1 of human HCC cell lines (Huh-7, Mahlavu); also called endogenous PSPC1; nuclear PSPC1
B2: PSPC1-Y523F mutant (HA-tagged) (other)
chain: T2 sequence with Y523F
notes: All PSPC1 mutants were generated in a pCDNA3.0-HA plasmid; also called Y523F PSPC1 mutant; HA-tagged Y523F mutant; not shown: HA tag from the pCDNA3.0-HA plasmid
B3: Flag-tagged PTK6 kinase-dead mutant (PTK6-K219M) (enzyme)
chain: not shown
notes: also called PTK6-KM; KM mutant; not shown: Flag tag
B4: EGFP-conjugated PSPC1-CT131 (PSPC1 C-terminal 131 fragment) (other)
chain: MGDMGPRGAINMGDAFSPAPAGNQGPPPMMGMNMNNRATIPGPPMGPGPAMGPEGAANMGTPMMPDNGAVHNDRFPQGPPSQMGSPMGSRTGSETPQAPMSGVGPVSGGPGGFGRGSQGGNFEGPNKRRRY
notes: PSPC1-CT131 cloned into pEGFP-C2 and expressed in Mahlavu cells; also called PSPC1-CT131-EGFP; EGFP-PSPC1-CT; not shown: EGFP from the pEGFP-C2 plasmid

How the values were obtained:
β-catenin [1] = target: T1, β-catenin; experiment: IP/western blotting, Huh-7 cells with HGF stimulation (FIG. 3b)
Method: (§1) (a-b) Huh-7 treated with or without HGF (10 ng/ml) for EMT induction. Under HGF stimulation, nuclear PSPC1 interacted with β-catenin and loss of PTK6 interaction owing to an increase of cytosolic PTK6 accumulation in HGF-induced EMT model in IP/westem blotting analysis. Arrowhead is the IgG heavy chain. Arrows are indicated proteins after IB. (c) Nuclear (SP1 as marker) and cytosolic (α-tubulin as marker) localization of PSPC1/PTK6 interaction and β-catenin analyzed by western blotting analysis in SK-hep1 cells. PSPC1-Y523F mutant further enhanced nuclear localization of β-catenin. (d) Nuclear (SP1 as marker) localization of PSPC1/PTK6 interaction and βcatenin analyzed by IP/western blotting analysis in SK-hep1 cells. Y523F PSPC1 mutant further enhanced nuclear interaction with β-catenin but not PTK6. […] Promoter activation (fold) was calculated relative to vector alone (Mock) in cells. […] (h) Secreted cytokines Wnt1 and Wnt3a protein expression measured by ELISA assays of conditional medium after transfection of divergent PSPC1/PTK6 expression constructs in SK-hep1 cells.

β-catenin [2] = target: T1, β-catenin; experiment: IP/western blotting of nuclear fraction, SK-hep1 cells (FIG. 3d)
Method: as §1

[3] = target: T2, HA-tagged PSPC1 (wild type); experiment: subcellular fractionation and western blotting, SK-hep1 cells (FIG. 1e)
[4] = target: B1; experiment: conclusion drawn from expression and fractionation experiments in Mahlavu cells; no direct binding assay described

B1
binding result (β-catenin [1]): binds

B2
binding result (β-catenin [2]): binds

B3
binding result [3]: no binding

B4
binding result [4]: binds
